The assay addresses Siglec-7 and/or Siglec-9 on fresh purified human NK cells. As to the kind of experiment: flow cytometry on fresh purified human NK cells, mean of 4 donors.

Consider 6 molecules from patent US20200369765A1.

B1: mAb1 (antibody, human IgG1, V domains shown)
VH: DVQLQESGPGLVKPSQSLSLTCTVTGYSITGGFAWNWIRQFPGNTLEWMGYIGYGGSTSYNPSLNSRISITRDTSKNHFFLQFNSVTTDDSATYYCARGDYLFAYWGQGTLVTVSA
VL: DIVMTQSHKFMSTSVGDRVSITCKASQDVNTAVAWYQQKPGQSPKLLIYSASYRYTGVPDRFTGSGSGTDFTFTISSVQAEDLAVYYCQQHYSTPRTFGGGTKLEIK
As to B1, the EC50 (in general, the concentration that produces a half-maximal response) is 0.05 µg/mL.

B2: mAb3 (antibody, human IgG1, V domains shown)
VH: EVQLLETGPGLVKPSQSLSLTCTVTGYSITGGFAWNWIRQFPGNTLEWMGYIGYGGSTSYNPSLNSRISITRDTSKNHFFLQFNSVTTEDSATYYCARGDYLFAYWGQGTLVTVSA
VL: DILMTQSPASLSASVGETVSITCRASGNIHNYLAWYLQRQGKSPQLLVYNAKTLADGVPSRFSGTGSGTQFSLKINSLQPEDFGSYYCQHFWSTPRTFGGGTKLEIK
B2 showed a concentration giving a half-maximal response (EC50) of 0.19 µg/mL.

B3: mAb2 (antibody, human IgG1, V domains shown)
VH: EVQLQESGPGLVKPSQSLSLTCTVTGYSITGGFAWNWIRQFPGNTLEWMGYIGYGGSTSYNPSLNSRISITRDTSKNHFFLQFNSVTTEDSATYYCARGDYLFAYWGQGTLVTVSA
VL: DIVMTQSHKFMSTSVGDRVSITCKASQDVNTAVAWYQQKPGQSPKLLIYSASYRYTGVPDRFTGSGSGTDFTFTISSVQAEDLAVYYCQQHYSTPRTFGGGTKLEIK
Molecule B3 returned a concentration giving a half-maximal response (EC50) of 0.07 µg/mL.

B4: mAb4 (antibody, human IgG1, V domains shown)
VH: DVQLVESGGDLVKPGGSLKLSCAASGFAFSSYDMSWVRQSPEKRLEWIAHIGSGGGNIYYPDTVKGRFTISRDNAKNTLYLQMRSLKSEDTAMYYCARLIFTTGFYGMDYWGQGTSVTVSS
VL: DIQMTQTTSSLSASLGDRVTISCRASQDISSYLNWYQQKPDGTIKLLIYYTSRLHSGVPSRFSGSGSGTDYSLTISNLDQDDIATYFCQQGNALPWTFGGGTKLEIK
On to B4, for which the EC50 came to 0.61 µg/mL.

B5: mAb5 (antibody, human IgG1, V domains shown)
VH: EIQLQQSGPELEKPGASVKISCKASGYSFSDYNMNWVKQSNGKSLEWIGNIDPYYGATSYNQRFKGKATLTVDKSSSTAYMQLKSLTSEDSAVYYCARGDSLFAYWGHGTLVTVSA
VL: DIVMTQSQEFMSTSLGDRVSVTCKASQNVGTNVAWYQQKPGQSPKALLYSASSRYSGVPDRFTGSGSGTDFTLTISNVQSEDLAEYFCQQYITYPYTFGGGTKLEIK
Turning to B5, the concentration for a half-maximal effect (EC50) was found to be 1.27 µg/mL.

B6: mAb6 (antibody, human IgG1, V domains shown)
VH: EIQLQQSGPELEKPGASVKISCKASGYSFSDYNMNWVKQSNGKSLEWIGNIDPYYGATSYNQRFKGKATLTVDKSSSTAYMQLKSLTSEDSAVYYCARGDSLFAYWGQGTLVTVSA
VL: DIVMTQSQEFMSTSLGDRVSVTCKASQNVGTNVAWYQQKPGQSPKALLYSASSRYSGVPDRFTGSGSGTDFTLTINNMQSEDLAEYFCQQYITYPYTFGGGTKLEIK
For B6, the EC50 is 1.3 µg/mL.
